Assay results taken from patent US11312760 (NEWSOARA BIOPHARMA, dated 2022).
Substitutions are numbered along the chain they refer to.

B1: Antibody 37G2 (recombinantly expressed in IgG1 form) (antibody, V domains shown)
VH: QVQLVQSGAEVKKPGSSVKVSCKASGGTFSSYAITWVRQAPGQGLEWMGGIIPIFGTANFAQKFQGRVTITADESTSTAYMELSSLRSEDTAVYYCAHLGGFADPFDYWGQGTLVTVSS
VL: EIVLTQSPATLSLSPGERATLSCRASQSVSNYLAWYQQKAGQAPRVLIYDAFNRATGIPARFSGSGSGTDFTLTISSLEPEDFAVYYCQQRSNWPPRITFGQGTRLEIK
B2: Antibody 31C2 (recombinantly expressed in IgG1 form) (antibody, V domains shown)
VH: QVQLVQSGAEVKKPGSSVKVSCKASGGTFSSYAISWVRQAPGQGLEWMGGIIPIFGTTNYAQKFQGRVTITADESTSTAYMELNSLRSEDTAVYYCAGRSAYGDKGYYFDYWGQGTLVTVSS
VL: B1 VL with Y32F, A40P, V46L, F52S, E79Q, R97Q, I98E, R105K, L106V
B3: Antibody 15A7 (recombinantly expressed in IgG1 form) (antibody, V domains shown)
VH: QVQLVQSGAEVKKPGASVKVSCKASGYTFTSYDINWVRQASGQGLEWMGWMNPNSANPGYAQKFQGRVTMTRNTSISTAFMELSSLRSDDTAVYYCARARVTIHYDILTGYYSNAFDIWGQGTMVAVSS
VL: DIQMTQSPSSLSASVGDRVTITCRASQTISSYLNWYQQKPGKAPKLLIYAASSLQSGVPSRFSGSGSGADFTLTISSLQPEDFATYYCQQSYTTFMYTFGQGTMLEIK

Target: authentic SARS-CoV-2 (live virus)
Test: cell-based or functional assay

Which “EC50 of neutralization of live virus in Vero-E6 cells” value (shortened to “EC50 of neutralization of live virus”) does the source give for B1 here?
Its value is 1.37 mg/L.

For B2, which “EC50 of neutralization of live virus” value is on record?
The value was 0.57 mg/L.

How did the “EC50 of neutralization of live virus” value turn out when B3 was run?
The value was 0.61 mg/L.
